The results in this text go back to publication PMC3562449 (Nature Communications, 2013).

Where “and” joins values, the source holds several entries; their conditions need not be identical. Equal values may be shown once.

The stoichiometry N is the number of molecules, sites or subunits per partner or assembly.

The target in data set [1] is BASS-NoC single mutant with Cys at residue 788 (Drosophila) (UniProt P46863). In words: SEC + other: sucrose density gradient centrifugation.
In data set [2] the target is BASS-NoC double mutant with Cys at residues 671 and 791 (Drosophila) (UniProt P46863). Described as above.
The target in data set [3] is BASS-NoC single mutant with Cys at residue 791 (Drosophila) (UniProt P46863). The data set is described as above.
For data set [4], the target named is BASS-NoC single mutant with Cys at residue 671 (Drosophila) (UniProt P46863). Described as above.
The target of data set [5] is BASS-NoC double mutant with Cys at residues 671 and 788 (Drosophila) (UniProt P46863). Described as above.
Data set [6] concerns the molecule itself. Briefly: SEC. (In general: In gel filtration, larger molecules generally elute earlier.)
Data set [7] deals with the molecule itself. Briefly: native MS.

In the case of “BASS-NoC single mutant with Cys at residue 788 (from UniProt P46863 631-920) (domain or fragment)”, in data set [1], the stoichiometry N was 4.

For the molecule “BASS-NoC double mutant with Cys at residues 671 and 791 (from UniProt P46863 631-920) (domain or fragment)”, the stoichiometry N in data set [2] is 4.

Take “BASS-NoC single mutant with Cys at residue 791 (from UniProt P46863 631-920) (domain or fragment)”: the stoichiometry N in data set [3] turned out to be 4.

With “BASS-NoC single mutant with Cys at residue 671 (from UniProt P46863 631-920) (domain or fragment)”, the stoichiometry N in data set [4] was 4.

For the molecule “BASS-NoC double mutant with Cys at residues 671 and 788 (from UniProt P46863 631-920) (domain or fragment)”, in data set [5], the stoichiometry N is 4.

B1: BASS 631–790 (domain or fragment, Drosophila, UniProt P46863 631-790, looked up)
chain: EQMQQQQLLMSKEIQTNLQVIEENNQRHKAMLDSMQEKFATIIDSSLQSVEEHAKQMHKKLEQLGAMSLPDAEELQNLQEELANERALAQQEDALLESMMMQMEQIKNLRSKNSISMSVHLNKMEESRLTRNHRIDDIKSGIQDYQKLGIEASQSAQAEL
As to B1, the “stoichiometry N” value in data set [6] is 4 and 2.

B2: BASS (bipolar assembly) domain of kinesin-5, residues 631–920 (domain or fragment, Drosophila, UniProt P46863 631-920, looked up)
chain: EQMQQQQLLMSKEIQTNLQVIEENNQRHKAMLDSMQEKFATIIDSSLQSVEEHAKQMHKKLEQLGAMSLPDAEELQNLQEELANERALAQQEDALLESMMMQMEQIKNLRSKNSISMSVHLNKMEESRLTRNHRIDDIKSGIQDYQKLGIEASQSAQAELTSQMEAGMLCLDQGVANCSMLQVHMKNLNQKYEKETNENVGSVRVHHNQVEIICQESKQQLEAVQEKTEVNLEQMVDARQQLITEDRQRFIGHATVATDLVQESNRQFSEHAEHQRQQLQICEQELVRFQ
Regarding B2, in data set [7], the “stoichiometry N” value was 2 and 4.

B3: BASS-core (BASS 631–835) (domain or fragment, Drosophila, UniProt P46863 631-835, looked up)
chain: EQMQQQQLLMSKEIQTNLQVIEENNQRHKAMLDSMQEKFATIIDSSLQSVEEHAKQMHKKLEQLGAMSLPDAEELQNLQEELANERALAQQEDALLESMMMQMEQIKNLRSKNSISMSVHLNKMEESRLTRNHRIDDIKSGIQDYQKLGIEASQSAQAELTSQMEAGMLCLDQGVANCSMLQVHMKNLNQKYEKETNENVGSVRV
For the molecule B3, the “stoichiometry N” value in data set [6] turned out to be 4.
